Test results reported in the nanobody polyreactivity screen of Harvey et al. (2022).

experiment: yeast display, Sf9 membrane polyspecificity reagent, FACS + sequencing; frameworks hold sequencing errors
How it was run: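 Nanobodies came from a synthetic yeast display library in Saccharomyces cerevisiae BJ5465, induced with galactose for 36–48 hours and stained for 1 hour at 4 °C with 10% biotinylated, detergent-solubilized Sf9 membrane reagent. Cells were enriched on streptavidin microbeads and then FACS-sorted, with low and high (top ~1%) gates set on anti-HA fluorescence for expression and streptavidin fluorescence for reagent binding. Each polyreactivity label reflects the gate a clone came from. Genes were amplified by colony PCR, sequenced by MiSeq 2 × 250 and filtered by CDR length.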

Sequence | polyreactivity (PSR sort gate)
QVQLVESGGGLVQAGGSLSLSCDASGRIFPKYAMGWYRQAPGKEREMVAGITKLVGSTYYADSVKGRFTISRDNAKNTVYLQMNSLKPEDTAVYYCAADYSYLIDYLDPEKEGMDFWGQGTQVTVSS | low polyreactivity
QVQLVESGGGLVQAGGSLSLSSAASGFTSTLNDMGWYRQAPGKERELVAAISNGGSTYYADSVKGRFTISRDNAKNTVYLQMNSLKPEDTAVYYCAVTATAPQEGDYWGQGTQVTVSS | low polyreactivity
QVQLVESGGGLVQAGGSLSLTCAASGSIFRYYAMGWYRQAPGKERELVADITSSGGSTYYADSVKGRFTISRDNAKNTDYLQMNSLKPEDTAVYYCAALYWFYVYPFTEYDYWGQGTQVTVSS | low polyreactivity
QVQLVESGGGLVQAGGSLSLTCAASGSTFDWYAMRLYRQAPGKERELVAASTSGGSTYYADSVKGRFTISRDNAKITVYLQMNSLKPEDTAVYYCAAESRQVRYILYYYWGQGTQVTVSS | low polyreactivity
QVQLVESGGGLVQAGGSLSLTCAASGSTFPGYPMGWYRQAPGKERELVAAINWRGDSTYYADSVKGRFTISRDNAKNTVYLQMNSLKPEDTAVYYCAAVRGTGTRRYDYWGQGTQVTVSS | high polyreactivity
QVQLVESGGGLVQAGGSNRLSCAASGCIFSRYLMGWYRQAPGIETELVADISGSRGRTYYADSVKGRFTISRDNAKKTVYLQMNSLKPEDTAVYYSNKVWFGYSGVDDYWGQGTQVTVSS | high polyreactivity
QVQLVESGGGLVQAGGSPRLSCAASGRIFHPYAMGWYRQAPGKERELVATISWSGGSTTYADSVKGRFTISRDNAKNTVYLQMNSLKPEDTAVYYCNADYWWSYVRFDYWGQGTQVTVSS | low polyreactivity
QVQLVESGGGLVQAGGSPRLSCADSGGIFGIYAMGWYRPAPGKERELVAAIRRGGSTSYADSVKGRFTISRDNAMNTVYLQMNSLKPEDTAVYYCAAGSYYRYGYWGQGTQVTVSS | high polyreactivity
QVQLVESGGGLVQAGGSQRLSCAASGSIFDLKAMGSYRQAPGKERELVAAISSGGGTYYADSVKGRFTISRDNAKNTVYLQMNSLKPEDTAVYYCNRVTRWTYNYWGQGTQVTVSS | high polyreactivity
QVQLVESGGGLVQAGGSRLICAASGLIFIWYTMGWYRQAPGKERELVAAIDSSGGNTYYADSLKGRFSISRDNAKNTVYLQMNSLKPEDTAVYYCAKDVGHGAGNLMGYWGQGTQVTVSS | low polyreactivity
QVQLVESGGGLVQAGGSRLSCAASGLIFISYTMGWYRQAPGKERELVAAIDSSGGNTYYADSVKGRFTISRDNAKNTVYLQMNSLKPDDTAVYYCNAAWPYKSVEYCGQGTQVTVSS | low polyreactivity
QVQLVESGGGLVQAGGSRRLSCAAAGISFGWYSMGWYRQAPGKERELVATISQSGTSTYYADSVKGRFTISRDNAKNTVYLQMNSLKPEDTAVYYCAADYIRGYYYRVPLEVDYWGQGNQVTVSS | low polyreactivity
QVQLVESGGGLVQAGGSRRLSCAASGFMFGVNAMGWYRQAPGKERELVAVISVRGGSTYYADSLKGRFTISRDNAKNTVYLQMNSLKPEDTAVYYCAADTFAGYYYWGQGTQVTVSS | high polyreactivity
QVQLVESGGGLVQAGGSRRLSCAASGFTFPHYLGRYRQAPGKERELVAAIIVSGGSTSYADSVKGRFTMSRDNAKNTVYLQMNSLKPEDTAVYYCAKDLRFRLFSYPSDYWGQGTQVTVSS | low polyreactivity
QVQLVESGGGLVQAGGSRRLSCAASGNTFYGYAMGWYRQAPGKERELVASITMSGDSTYYADSVKGRFTISRDNAKNTVYLQMNSLKPEYTSVYYCAGVYTYPLGYYHYTYDYWGQGTQVTVSS | low polyreactivity
QVQLVESGGGLVQAGGSRRLSCAASGRIFRGYAMGWYRQAPGKERELVAAISASGGSTYYADSVKGRYTISRDIAKNTVYLLMISLKQVDTAVYYCATGGYARYDFWGQGTQVTVSS | high polyreactivity
QVQLVESGGGLVQAGGSRRLSCAASGRTFVSNVMGWYRPAPGKDRELVAAINWSGDSTYYADSVKGRFTISRDNAKNTVYLQMNSLKPEDTAGYYCAVQGGYFDTWDGDYWGQGTQVTVSS | low polyreactivity
QVQLVESGGGLVQAGGSRRLSCAASGSIFPVYAMGWYRQAPGKERELVASISTGGSTYYADSVKGRFTISRDNAKNTVYFQLNSLKPEDTAVYYCAATGWAYGYGYGYWGQGTQVTESS | low polyreactivity
QVQLVESGGGLVQAGGSRRLSCAASGSIFSGNTMGWYRQAPGKERELVAAISSGGSTKYADSVKGRFTISRDNAKNTVYFQMNRLNPEDSAVYFCGATSSYRLRDRHRIWYGYWGQGTEVTVSS | high polyreactivity
QVQLVESGGGLVQAGGSRRLSCAASGSIFVKYAMGWYRQAPGKERELVAAKSQSGVRTYYADSVKGRFTISRDNAKNTVYLQMNSLTPEDTAVYYCAAYSGYYYWGQGTQVTVSS | high polyreactivity
QVQLVESGGGLVQAGGSRRLSCAASGSIFYTYLMGWYRPAPGTDRELVAAISASGVRTYYADSVKGRFTISRDNAKITVYLEMNSLKPEDTAVYYCAADRQRADYYWGQGRQVTVSS | high polyreactivity

Sequence | polyreactivity (PSR sort gate)
QVQLVESGGGLVQAGGSRRLSCAATGRTFGRYSMGWDRQAPGKERELVAAITTIGGSTYYADSVKGRFTISRDNAKNTVYLQMNSLKTEDTAVYYCAAGWVTNSDGMDYWGQGTQVTVSS | low polyreactivity
QVQLVESGGGLVQAGGSRRLSCAPSGKIFGSNAMGSYRQAPGKERELVAAISKSCGRTYYADSVKGRFTISRDNAKNTVYLQMNCLKPEDSAVYYCGAYDGYYEFDYWGQGTQVPVSS | low polyreactivity
QVQLVESGGGLVQAGGSRRLSFAASGFTFKYYAMGWYRQAPGKERELVDAISRRGGSTSYADSVKGRFTISRDNAKNTVYLKMNSLKPEDTSVYYLAADSSFERSSDYWGQGTQVTVSS | high polyreactivity
QVQLVESGGGLVQAGGSVRLSCAASGFIISYYAMGWYRQAPGKERELFAAISWSGGSTYYADSVKGSFTISRDNAKNTVYLQMNSLKPEDTAVYYCAADFLYGAEGNDYWGQGTQVTVSS | high polyreactivity
QVQLVESGGGLVQAGGSVRLSCAASGFTFGYYAMGWYRQAPGKERELVASISSVDNTYYADSVKGRFTISRDNAKNTVSFQMNSLKPEDTAVDYCAARYRDYFVRGGYWGQGTQVSVSS | high polyreactivity
QVQLVESGGGLVQAGGSVRLSCAASGGTFKANAMGWYRQAPGKERELVAAISWSGGSTYYADSVKGRFTISRDNAKNSVYLQMNSLKPEDTAVYYCRYWKYRSYDYWGQGTQVTVSS | high polyreactivity
QVQLVESGGGLVQAGGSVRLSCAASGRIFGIYAMGWYRQAPGKERELVAAITWIGGRTYYADSVKGRFTISRDNAKNTVYLQMNSLKPEDTAVYYCNAVYTQRFATYRRYDYWGQGTQVTVSS | high polyreactivity
QVQLVESGGGLVQAGGTLRFSCAASGFTFYVYAMGWYRQAPGKERELVAAISKSGGSTYYADSVKGRFTISRDNAKNTVYLQMNSLKPEDTAVYYCAVYDKRSGYRGGHRYNSWGQGTQVTVSS | high polyreactivity
QVQLVESGGGLVQAGGTLRFSCAASGLTIDRYAMGWYRQAPGKERELVAAISFTGDRTYYADSVKGRFTISRDNAKNTVYLQMNSLKPEDTAVYYCAVRRYGYRKYDSWGQGTQVTVSS | high polyreactivity
QVQLVESGGGLVQAGGTLRLICAASGSIFGYYTMGWYRQASGKERELVAAITSGGSTNYADSVKGRFTISRDNAKNTVYLQMNSLKPEDTAVYYCATVSYYPWRYDYWGQGTQGTVSS | low polyreactivity
QVQLVESGGGLVQAGGTLRLSCAASGFTFAVYAMGWYRQAPGKERELVAAISRSGTRTYYADSVKGRFTISRDNSKNPVYIQMNSLKPEDTAVYYCAADKYRNGYDYWGQGTQVTVSS | low polyreactivity
QVQLVESGGGLVQAGGTLRLSCAASGFTLSVYAMGWYIQAPGKDRELVAAITRSTGSTYYADSVKGRFTISRDNAKNTVYLQMNSLKPEDTAVYYCNAGHFAHHHGYYRSKYDYWGQGTQVTVSS | low polyreactivity
QVQLVESGGGLVQAGGTLRLSCAASGGIFVANAMGWYRQAPGKERELVAAISRSGGSTYYADSVKGRFTISRDNAKNTVYLQMNSLKPEDTAVYYCAAKSRRQYTVGLTSDYWGQGTQVTVSS | high polyreactivity
QVQLVESGGGLVQAGGTLRLSCAASGGTFVSRAMGWYRQAPGKERELVAAISFSGDSTYYADSVKGRFTISRDNAKNTVYLQMNSLKPEDTAVYYCRFYSYWSWLGREYDYWGQGTQVTVSS | low polyreactivity
QVQLVESGGGLVQAGGTLRLSCAASGMTFSRNGMGWYRQAPGKEREVVADISYRGGRTYYADSVKGRFTFSRDNAKNTVYLQMHSLKPEDTAVYYCNAVFLVGVGPTSDYWGQRTQVTVSS | high polyreactivity
QVQLVESGGGLVQAGGTLRLSCAASGRIFFSYAMGWYRQAPGKERELVAAITYSGGSTYYADSVKGRFTISRDNAKNTVYLQKNSLKPEDTAVYYCNAELYEKYDYWGQGTQVTLSS | low polyreactivity
QVQLVESGGGLVQAGGTLRLSCAASGRIFFTNAMRRYRQASGKESELVAAISKSGARTYYADSVKGRFTISRDNAKNTVYLQMNSLKPEDTAVYYCAGDVSVAGYYYWGEGTQVTVSS | high polyreactivity
QVQLVESGGGLVQAGGTLRLSCAASGRIFPYYAMGWYRQAPGKERELVAAINSGGSTYYADSVKGRFTISRDNEKNTVYLQMNSLKPEDSAVYYCAVDPGYYDEYNYWGEGTQVTVSS | low polyreactivity
QVQLVESGGGLVQAGGTLRLSCAASGRTFNTYAMGWYRLAPGKERELVAAITVPGGSTYYADSVKGRFTLSRDNAKNTVYLQMNSLKPADTAVYYCAAERPPDGYLVVGYVSTQYYYWGQGTQVTVSS | low polyreactivity
QVQLVESGGGLVQAGGTLRLSCAASGRTFTYYAMGWYRQAPGKERELVATIRSGGTTNYADSVKGRFTISRDNAKNTVYLQMNSLKPEDTAEYYCARVLSYVWYYRDPYQYPDYDFWGQGTQVTGSS | low polyreactivity
